# In patent publication US20210017289A1 (AbbVie / Abbott, published 2021):
# T1: 293s-huOX40-muCRDI
# T1 construct: cell-surface chimera, named on the sheet by its cell line; also called human OX40 chimera with murine CRDI replacing human CRDI
# T1 receptor chain: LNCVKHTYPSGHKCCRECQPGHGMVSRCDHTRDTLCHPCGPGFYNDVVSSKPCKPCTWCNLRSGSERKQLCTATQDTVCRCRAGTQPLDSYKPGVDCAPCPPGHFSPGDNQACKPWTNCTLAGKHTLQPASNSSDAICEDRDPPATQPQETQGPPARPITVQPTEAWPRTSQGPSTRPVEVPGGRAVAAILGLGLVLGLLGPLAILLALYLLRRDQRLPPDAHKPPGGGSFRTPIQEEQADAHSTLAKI
# T2: 293s-huOX40-muCRDIII
# T2 construct: cell-surface chimera, named on the sheet by its cell line; also called human OX40 chimera with murine CRDIII replacing human CRDIII
# T2 receptor chain: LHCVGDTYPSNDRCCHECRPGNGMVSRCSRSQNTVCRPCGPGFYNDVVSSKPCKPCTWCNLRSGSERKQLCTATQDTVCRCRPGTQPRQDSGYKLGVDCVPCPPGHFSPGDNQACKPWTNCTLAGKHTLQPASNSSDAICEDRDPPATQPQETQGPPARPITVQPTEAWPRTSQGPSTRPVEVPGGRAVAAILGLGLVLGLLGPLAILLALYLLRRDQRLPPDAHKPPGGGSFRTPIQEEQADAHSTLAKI
# How the values were obtained:
# [1] = target: T1, 293s-huOX40-muCRDI; test: flow cytometry on 293s transfectants, Hu3738 added at 2 µg/mL, Cy5 donkey anti-human IgG
# Method: (§1) After plating cells, 50 μL of Hu3738 or isotype control antibody at 2 μg/mL were added to corresponding wells in duplicate for each cell line and allowed to incubate on ice for 30 minutes. Following incubation, 200 μL of Dulbecco's Phosphate Buffered Saline (DPBS) was added into each well and plates were spun down at 1000 rpm for three minutes. Supernatants from each well were removed and 50 μL of Cy5-Donkey anti-Human IgG (Jackson ImmunoResearch) secondary antibody was added at a 1:250 dilution, which was then incubated for 30 minutes on ice in the dark. Following the incubation period, 200 μL of DPBS was added prior to spinning down the plate at 1000 rpm for three minutes. Supernatants were removed and each well was re-suspended with 100 μL of DPBS+1% Formaldehyde. Samples were analyzed on the dual laser FACSCalibur flow cytometer (Becton Dickinson).
# [2] = target: T2, 293s-huOX40-muCRDIII; test: as above
# Method: as §1
binder,measurement,setting,value
"Hu3738 (antibody, V domains shown, Humanized antibody; also called exemplary anti-OX40 antibody Hu3738; Hu3738 VH.1b / Hu3738 VL.1) VH: EVQLVESGGGLVQPGGSLRLSCAASGFTFSRYGMSWVRQAPGKGLELVATINSNGGRTYYPDSVKGRFTISRDNAKNSLYLQMNSLRAEDTAVYYCAREGITTAYAMDYWGQGTTVTVSS VL: DIVMTQSPDSLAVSLGERATINCKASQSVDYDGDSYMHWYQQKPGQPPKLLIYAASILESGVPDRFSGSGSGTDFTLTISSLQAEDVAVYYCQQSNEDPRTFGGGTKVEIKR",binding result,[1],binds
same,binding result,[2],binds
